Laboratory results taken from US20180346565A1 (AbbVie / Abbott, published 2018).

Target: T1, DLL3 purified protein (human, UniProt Q9NYJ7 27-492, limits assumed)
T1 construct: also called purified DLL3; immobilized human DLL3
T1 sequence (looked up): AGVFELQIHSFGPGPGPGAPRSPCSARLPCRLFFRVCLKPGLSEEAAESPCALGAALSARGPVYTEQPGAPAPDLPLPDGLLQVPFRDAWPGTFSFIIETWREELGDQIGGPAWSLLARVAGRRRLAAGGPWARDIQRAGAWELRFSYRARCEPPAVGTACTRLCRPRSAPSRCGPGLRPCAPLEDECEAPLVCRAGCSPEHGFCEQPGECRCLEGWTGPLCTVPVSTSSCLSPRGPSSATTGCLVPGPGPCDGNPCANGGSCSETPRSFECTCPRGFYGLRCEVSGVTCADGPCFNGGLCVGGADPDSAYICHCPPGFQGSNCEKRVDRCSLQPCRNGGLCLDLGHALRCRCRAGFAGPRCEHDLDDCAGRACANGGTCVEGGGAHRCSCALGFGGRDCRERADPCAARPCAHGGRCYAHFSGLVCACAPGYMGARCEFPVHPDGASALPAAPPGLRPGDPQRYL
Test: ELISA, plate coated with 1 ug/ml purified DLL3, serially diluted antibody, detection with HRP-conjugated anti-human IgG1 reporter mAb, TMB, OD450
Source text: Site-specific anti-DLL3 antibodies fabricated as set forth in the previous Examples were screened by an ELISA assay to determine whether they bound to DLL3 purified protein. The parental native antibody was used as a control and run alongside the site-specific anti-DLL3 antibody. Binding of the antibodies to DLL3 was detected with a monoclonal antibody (mAb) reporter antibody conjugated to horseradish peroxidase (HRP), (Southern Biotech, Cat. No. SB9052-05), which binds to an epitope present on human IgG1 molecules. HRP reacts with its substrate tetramethyl benzidine (TMB). The amount of […] TMB is directly proportional to the amount of test antibody bound to DLL3.
ELISA plates were coated with 1 μg/ml purified DLL3 in PBS and incubated overnight at 4° C. Excess protein was removed by washing and the wells were blocked with 2% (w/v) BSA in PBS with 0.05% tween 20 (PBST), 200 μL/well for 1 hour at room temperature. After washing, 100 μL/well serially diluted antibody or ADC were added in PBST for 1 hour at room temperature. The plates were washed again and 0.5 ug/ml of 100 μL/well of the appropriate reporter antibody was added in PBST for 1 hour at room temperature. […] The samples were then analyzed by spectrophotometer at OD 450.

B1: hSC16.56 (antibody, human IgG1, kappa, V domains shown)
VH: QVQLVQSGAEVKKPGASVKVSCKASGYTFTNYGMNWVRQAPGQGLEWMGWINTYTGEPTYADDFKGRVTMTTDTSTSTAYMELRSLRSDDTAVYYCARIGDSSPSDYWGQGTLVTVSS
VL: EIVMTQSPATLSVSPGERATLSCKASQSVSNDVVWYQQKPGQAPRLLIYYASNRYTGIPARFSGSGSGTEFTLTISSLQSEDFAVYYCQQDYTSPWTFGQGTKLEIKR
notes: Native human IgG1/kappa; also called humanized SC16.56; humanized anti-DLL3 antibody hSC16.56
B1 was tested, and the “EC50 (read off the curve)” value was about 10 ng/mL.
